{
  "source": "patent US20030181404",
  "proteins": {"B1": {"name": "Csk (murine) immunoprecipitated from mouse brain (protein)", "chain": "SAIQAAWPSGTECIAKYNFHGTAEQDLPFCKGDVLTIVAVTKDPNWYKAKNKVGREGIIPANYVQKREGVKAGTKLSLMPWFHGKITREQAERLLYPPETGLFLVRESTNYPGDYTLCVSCEGKVEHYRIMYHASKLSIDEEVYFENLMQLVEHYTTDADGLCTRLIKPKVMEGTVAAQDEFYRSGWALNMKELKLLQTIGKGEFGDVMLGDYRGNKVAVKCIKNDATAQAFLAEASVMTQLRHSNLVQLLGVIVEEKGGLYIVTEYMAKGSLVDYLRSRGRSVLGGDCLLKFSLDVCEAMEYLEGNNFVHRDLAARNVLVSEDNVAKVSDFGLTKEASSTQDTGKLPVKWTAPEALREKKFSTKSDVWSFGILLWEIYSFGRVPYPRIPLKDVVPRVEKGYKMDAPDGCPPAVYEVMKNCWHLDAATRPTFLQLREQLEHIKTHELHL"}, "B2": {"name": "CHK (murine Ctk) immunoprecipitated from mouse brain (protein)", "chain": "MARRSSRVSWLAFEGWESRDLPRVSPRLFGAWHPAPAAARMPTRWAPGTQCMTKCENSRPKPGELAFRKGDMVTILEACEDKSWYRAKHHGSGQEGLLAAAALRHGEALSTDPKLSLMPWFHGKISGQEAIQQLQPPEDGLFLVRESARHPGDYVLCVSFGRDVIHYRVLHRDGHLTIDEAVCFCNLMDMVEHYTKDKGAICTKLVKPRRKQGAKSAEEELAKAGWLLDLQHLTLGAQIGEGEFGAVLQGEYLGQKVAVKNIKCDVTAQAFLDETAVMTKLQHRNLVRLLGVILHHGLYIVMEHVSKGNLVNFLRTRGRALVSTSQLLQFALHVAEGMEYLESKKLVHRDLAARNILVSEDLVAKVSDFGLAKAERKGLDSSRLPVKWTAPEALKNGRFSSKSDVWSFGVLLWEVFSYGRAPYPKMSLKEVSEAVEKGYRMEPPDGCPGSVHTLMGSCWEAEPARRPPFRKIVEKLGRELRSVGVSAPAGGQEAEGSAPTRSQDP"}},
  "data": [
    {"protein": "B1", "values": [
      {"measurement": "in vitro kinase assay of immunoprecipitates (32P incorporation into substrate)", "setting": "C-terminal src peptide", "value": "both kinases phosphoylated the C-terminal scr peptide, enolase and poly Glu/Try to similar degrees"},
      {"measurement": "in vitro kinase assay of immunoprecipitates (32P incorporation into substrate)", "setting": "enolase", "value": "both kinases phosphoylated the C-terminal scr peptide, enolase and poly Glu/Try to similar degrees"}
    ]},
    {"protein": "B2", "values": [
      {"measurement": "in vitro kinase assay of immunoprecipitates (32P incorporation into substrate)", "setting": "C-terminal src peptide", "value": "both kinases phosphoylated the C-terminal scr peptide, enolase and poly Glu/Try to similar degrees"},
      {"measurement": "in vitro kinase assay of immunoprecipitates (32P incorporation into substrate)", "setting": "enolase", "value": "both kinases phosphoylated the C-terminal scr peptide, enolase and poly Glu/Try to similar degrees"}
    ]}
  ]
}
